Assay results published in patent publication US7998940B2, “Aptamers to von Willebrand factor and their use as thrombotic disease therapeutics” (Archemix Corp., priority 2004, dated 2011).
Oligonucleotides are written 5' to 3', each unit as a sugar letter and its base; * is a phosphorothioate linkage, no mark a phosphodiester; rarer units and linkages stand in square brackets, end groups in braces. Plain capitals give the bases only. d = 2'-deoxy (DNA); r = 2'-OH (RNA)

Legend:
[1] = molecular target: T1, human vWF A1 domain (SEQ ID NO 5) (Homo sapiens, UniProt P04275, T1381A); assay: 3-point dot blot screen, human vWF A1 domain; type: binding; settings: rRdY aptamers; 100 nM human vWF A1 domain; ratio of fraction bound with target to without
Method in brief: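 Values are ratios of aptamer fraction retained on nitrocellulose with 100 nM vWF A1 domain (human or rabbit) versus a no-protein control. Unique clones from rounds 9 and 12 pools were transcribed, desalted and 5'-32P labeled before this three-point dot blot screen.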

[2] = system: rabbit vWF A1 domain (SEQ ID NO 6); assay: 3-point dot blot screen, rabbit vWF A1 domain; type: binding; settings: for Screen- Rabbit/No Protein: rRdY aptamers, 100 nM rabbit vWF A1 domain, ratio of fraction bound with target to without
Method in brief: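 Rabbit vWF A1 domain binding was screened by dot blot using three conditions: no target protein, human vWF, and rabbit vWF A1 domain at 100 nM (20 nM in the screen run twice). Radiolabeled aptamer bound to nitrocellulose was quantified, and results are expressed as the ratio of bound fraction with protein to bound fraction without protein.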

[3] = system: full length human vWF binding to lyophilized platelets; assay: Full length human von Willebrand Factor platelet binding assay (FACS); type: cell-based; settings: 5 nM full length human vWF, lyophilized platelets, botrocetin; for Inhibition of full length hVWF binding in FACS assay, IC50 range: both bounds in nM
Method in brief: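 Aptamer titrations (0.1–1000 nM) pre-incubated with 5 nM full-length human vWF, then added to lyophilized platelets plus botrocetin for 15 min at 37 °C in PBS/0.5% BSA. Bound vWF detected by anti-vWF then FITC secondary antibody via flow cytometry MFI; % inhibition versus no-aptamer binding fitted for IC50.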

[4] = molecular target: T1, human vWF A1 domain (SEQ ID NO 5); assay: dot blot KD determination, human vWF A1 domain; settings: read-out: Human A1 KD; rRdY aptamers; 6 point protein titration
[5] = system: full length human vWF; assay: 3-point dot blot screen, full length human vWF; type: binding; settings: 20 nM full length human vWF, ratio of fraction of aptamer bound with target protein to fraction bound without protein
Method in brief: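 Unique aptamer clones tested twice by nitrocellulose dot blot with no protein, 20 nM full-length human vWF or 20 nM rabbit vWF A1 domain. Value is fraction of aptamer bound with target divided by fraction bound without protein.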

[6] = system: rabbit vWF domain A1 binding to lyophilized platelets; assay: Rabbit von Willebrand Factor domain A1 platelet binding assay (FACS); type: cell-based; settings: 4 nM rabbit A1 vWF, lyophilized platelets, botrocetin; both bounds in nM; read-out: Inhibition of rabbit VWF A1 domain binding in FACS assay, IC50 range
Description: Botrocetin induces the binding of the A1 domain of vWF to platelets, as well as the full length protein. It was determined by the inventors that 6-Histidine-tagged rabbit A1 domain vWF purified protein could be induced to bind to human lyophilized platelets with botrocetin. Rabbit A1 binding to platelets is measured with an anti-poly-His antibody followed by incubation with a phycoerythrin conjugated secondary antibody. The degree of binding can be quantified by flow cytometric analysis. The ability of aptamers to block the binding of rabbit A1 to human fixed platelets was correlated with decreased fluorescence signal.
The ability of aptamers of the invention to block rabbit vWF domain A1 binding to lyophilized platelets was also assessed by flow cytometric analysis. Titrations of aptamers (zero, 0.1 nM to 1000 nM) were preincubated briefly with 4 nM of rabbit A1 vWF in FACS buffer (PBS plus 0.5% bovine serum albumin) at room temperature in a volume of 50 uL. Another 50 uL containing 5 uL of lyophilized platelets plus 1 uL of 0.1 U/uL of botrocetin in FACS buffer was added to aptamer/vWF. This reaction was allowed to proceed for 15 minutes at 37 degrees C. after which 200 uL of FACS buffer was added. Platelets were collected by a 6 minute spin at 1470 RCF and the supernatant was discarded. The pellets were resuspended in 100 uL of FACS buffer containing a 1:200 dilution of anti-Penta-HIS-biotin conjugate antibody and were incubated at room temperature for 30 minutes. After the dilution with 200 uL of FACS buffer, the platelets were spun at 1470 RCF for 6 minutes, and the supernatant was discarded. The pellets were resuspended in a 1:100 solution of anti-IgG-PE antibody and were incubated in the dark for 30 minutes at room temperature. The entire 100 uL was diluted into 200 uL of FACS buffer and analyzed immediately by flow cytometric analysis in the FACSCAN. Contaminating debris was eliminated from the analysis by drawing a gate around the population of single and aggregated platelets and collecting data from 10000 events. Median fluorescent intensity (“MedFI”) readings (which are generally equivalent to the MFI readings, described in Example 3a above, for comparative purposes) were quantified for each sample analyzed by flow cytometry. Background MedFI was subtracted from all data points. Percent inhibition was reported by calculating the percent value of binding of […] to platelets in the presence of aptamer at a given concentration relative to binding in the absence of any aptamer (see FIG. 7). IC50 values were determined by fitting the percent inhibition of vWF binding to platelets as a function of aptamer concentration to the equation: % inhibition=% inhibitionmax/(1+IC50/aptamer conc.)

T1 sequence (P04275 with tags, fused parts or gaps T1381A): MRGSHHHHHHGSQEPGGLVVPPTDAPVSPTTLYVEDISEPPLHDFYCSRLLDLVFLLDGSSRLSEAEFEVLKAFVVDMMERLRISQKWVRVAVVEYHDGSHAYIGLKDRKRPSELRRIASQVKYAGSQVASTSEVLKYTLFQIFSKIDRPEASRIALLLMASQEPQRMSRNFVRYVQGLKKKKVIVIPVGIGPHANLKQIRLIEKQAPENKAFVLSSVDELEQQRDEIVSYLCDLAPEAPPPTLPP
rabbit vWF A1 domain (SEQ ID NO 6), sequence (as listed by the source): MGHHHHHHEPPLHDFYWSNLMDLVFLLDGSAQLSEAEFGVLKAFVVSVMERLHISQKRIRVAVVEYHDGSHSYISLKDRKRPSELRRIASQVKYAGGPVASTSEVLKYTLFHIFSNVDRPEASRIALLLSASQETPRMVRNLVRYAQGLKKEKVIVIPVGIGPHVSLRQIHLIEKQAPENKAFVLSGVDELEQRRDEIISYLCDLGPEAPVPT
rabbit vWF domain A1 binding to lyophilized platelets, sequence (as listed by the source): as above

B1: AMX206.A10: rRdY aptamer clone (nucleic acid)
chain: rGrGrArGdCrGdCrAdCdTdCrArGdCdCrAdCrGrGdCrAdTrGrAdCrGrGdTrGrAdTrGrArAdTdTrArGdCrGdCrGrGdTrGdTdCrGrGdTrGrGdTrGdTdCrAdTdTdTdCrGrAdCdCdTdCdTdCdTrGdCdTrArGdC
Screen- Human/No Protein [1]: 2.62
Screen- Rabbit/No Protein [2]: 2.58
Inhibition of full length hVWF binding in FACS assay, IC50 range [3]: no activity
Kd [4]: 111 nM

B2: AMX203.A1: rRdY aptamer clone (nucleic acid)
chain: rGrGrArGdCrGdCrAdCdTdCrArGdCdCrAdCrArGdTdTdCdTrGdTdCrGrGdTrGrAdTrGrArAdTdTrArGdCrGdCrGrGrGrArGdCdTrGdTrGrGrGrAdCrGdTdTdTdCrGrAdCdCdTdCdTdCdTrGdCdTrArGdC
Screen- Human/No Protein [1]: 2.99
Screen- Rabbit/No Protein [2]: 2.67
Inhibition of full length hVWF binding in FACS assay, IC50 range [3]: no activity
Kd [4]: 1150 nM

B3: AMX206.D7: rRdY aptamer clone (nucleic acid)
chain: rGrGrArGdCrGdCrAdCdTdCrArGdCdCrAdCrGrGdCrAdCrGrAdCrGrGdTrGrAdTrGrArAdTdTrArGdCrGdCrGrGdTrGdTdCrGrGdTrGrGdTrGdTdTrAdTdTdTdCrGrAdCdCdTdCdTdCdTrGdCdTrArGdC
Screen- Human/No Protein [1]: 2.19
Screen- Rabbit/No Protein [2]: 2.08
Inhibition of full length hVWF binding in FACS assay, IC50 range [3]: no activity
Kd [4]: 187 nM

B4: AMX237.G7: DNA SELEX 2 aptamer clone (nucleic acid)
DNA: CTACCTACGATCTGACTAGCTTGGTAGCGACTTTGTGGAGCTGCGGTTTGGTCGACGTCAGCTTACTCTCATGTAGTTCC
modifications: DNA, backbone not given here
notes: DNA SELEX 2 aptamer clone
Screen Rabbit/No Protein ([2]; 3-point dot blot screen, 20 nM rabbit vWF A1 domain, ratio of fraction of aptamer bound with target protein to fraction bound without protein): 2.54
Screen- Human/No Protein [5]: 2.68
IC50 ([3]; read-out: Inhibition of full length hVWF binding in FACS assay, Average IC50): 6.5 nM
IC50 [6]: 12.3 nM

B5: AMX206.E7: rRdY aptamer clone (nucleic acid)
chain: rGrGrArGdCrGdCrAdCdTdCrArGdCdCrAdCrGrGrArGdCrGdTdCrGrGdTrGrAdTrGrGrAdTdTrArGdCrGdCrGrGdCdTdCdCrGdTrGrGdTrAdCrAdCdCdTdTdTdCrGrAdCdCdTdCdTdCdTrGdCdTrArGdC
Screen- Human/No Protein [1]: 2.11
Screen- Rabbit/No Protein [2]: 2.26
Inhibition of full length hVWF binding in FACS assay, IC50 range [3]: no activity
Kd [4]: 151 nM

B6: AMX205.D11: rRdY aptamer clone (nucleic acid)
chain: rGrGrArGdCrGdCrAdCdTdCrArGdCdCrAdCrGrGdCrAdCrGrAdCrGrGdTrGrAdTrGrArAdTdTrArGdCrGdCrGrGdTrGdTdCrGrGdTrGrGdTrGdTdCrAdTdTdTdCrGrAdCdCdTdCdTdCdTrGdCdTrArGdC
Screen- Human/No Protein [1]: 2.22
Screen- Rabbit/No Protein [2]: 2.07
Inhibition of full length hVWF binding in FACS assay, IC50 range [3]: no activity
Kd [4]: 124 nM

B7: AMX203.D6: rRdY aptamer clone (nucleic acid)
chain: rGrGrArGdCrGdCrAdCdTdCrArGdCdCrAdCrArGdTdTdCdTrGdTdCrGrGdTrGrAdTrGrArAdTdTrArGdCrGdCrGrArGrArGdCdTrGdTrGrGrGrAdCrGdTdTdTdCrGrAdCdCdTdCdTdCdTrGdCdTrArGdC
Screen- Human/No Protein [1]: 1.92
Screen- Rabbit/No Protein [2]: 1.57
Inhibition of full length hVWF binding in FACS assay, IC50 range [3]: no activity
Kd [4]: 523 nM

B8: AMX206.H9: rRdY aptamer clone (nucleic acid)
chain: rGrGrArGdCrGdCrAdCdTdCrArGdCdCrAdCrGrGrArGdCrGdTdCrGrGdTrGrAdTrGrGrAdTdTrArGdCrGdCrGrGdTdTdCdCrGdTrGrGdTrAdCrAdCdCdTdTdTdCrGrAdCdCdTdCdTdCdTrGdCdTrArGdC
Screen- Human/No Protein [1]: 1.98
Screen- Rabbit/No Protein [2]: 2.31
Inhibition of full length hVWF binding in FACS assay, IC50 range [3]: no activity
Kd [4]: 109 nM

B9: AMX205.H8: rRdY aptamer clone (nucleic acid)
chain: rGrGrArGdCrGdCrAdCdTdCrArGdCdCrAdCrArArAdCrGrGrAdCrGrGdTrGrAdTrGrGrAdTdTrArAdCrGdCrGrGrGdTdTdTrAdTrGrGdCrArArGrGdTdTdTdCrGrAdCdCdTdCdTdCdTrGdCdTrArGdC
Screen- Human/No Protein [1]: 2.04
Screen- Rabbit/No Protein [2]: 2.84
Inhibition of full length hVWF binding in FACS assay, IC50 range [3]: no activity
Kd [4]: 788 nM

B10: AMX205.H9: rRdY aptamer clone (nucleic acid)
chain: rGrGrArGdCrGdCrAdCdTdCrArGdCdCrAdCrGrAdCrGrGdTrGrAdTrGrGrAdTdTrArGdCrGdCrGrGdTrGrGrArGrArArGrAdTrGdCrGdCdTrGdTdTrGdTdTdTdCrGrAdCdCdTdCdTdCdTrGdCdTrArGdC
Screen- Human/No Protein [1]: 2.36
Screen- Rabbit/No Protein [2]: 3.14
Inhibition of full length hVWF binding in FACS assay, IC50 range [3]: no activity
Kd [4]: 178 nM

B11: AMX206.F9: rRdY aptamer clone (nucleic acid)
chain: rGrGrArGdCrGdCrAdCdTdCrArGdCdCrAdCrGrGrArGdCrGdTdCrGrGdTrGrAdTrGrGrAdTdTrArGdCrGdCrGrGdCdTdCdCrGdTrGrGdTrAdCrAdCrAdTdTdTdCrGrAdCdCdTdCdTdCdTrGdCdTrArGdC
Screen- Human/No Protein [1]: 2.98
Screen- Rabbit/No Protein [2]: 3.00
Inhibition of full length hVWF binding in FACS assay, IC50 range [3]: no activity
Kd [4]: 139 nM

B12: AMX205.F9: rRdY aptamer clone (nucleic acid)
chain: rGrGrArGdCrGdCrAdCdTdCrArGdCdCrAdCrGrGrArGdCrGdTdCrGrGdTrGrAdTrGrGrAdTdTrArGdCrGdCrGrGdCdTdCdCrGdTrGrGdTrAdCrGdCdCdTdTdTdCrGrAdCdCdTdCdTdCdTrGdCdTrArGdC
Screen- Human/No Protein [1]: 2.22
Screen- Rabbit/No Protein [2]: 2.47
Inhibition of full length hVWF binding in FACS assay, IC50 range [3]: no activity
Kd [4]: 145 nM

B13: AMX205.H11: rRdY aptamer clone (nucleic acid)
chain: rGrGrArGdCrGdCrAdCdTdCrArGdCdCrAdCrGrGdCrAdCrGrAdCrGrGdTrGrAdTrGrGrAdTdTrArGdCrGdCrGrGdTrGdTdCrGrGdTrGrGdTrGdTdCrAdTdTdTdCrGrAdCdCdTdCdTdCdTrGdCdTrArGdC
Screen- Human/No Protein [1]: 2.18
Screen- Rabbit/No Protein [2]: 2.41
Inhibition of full length hVWF binding in FACS assay, IC50 range [3]: no activity
Kd [4]: 144 nM
